Assay results taken from publication PMC4522657, “Identification of a DYRK1A Inhibitor that Induces Degradation of the Target Kinase using Co-chaperone CDC37 fused with Luciferase nanoKAZ” (Scientific Reports, 2015).
Values belong to the substance of their own block, whether it stands above or below them.

What was measured:
HSP90β (nanoKAZ-HSP90β) = HSP90β (nanoKAZ-HSP90β) (UniProt P08238); assay: anti-FLAG plate capture, luciferase-fusion luminescence; details: reference: wild type
CDC37 (CDC37-nanoKAZ) = CDC37 (CDC37-nanoKAZ) (UniProt Q16543); assay: as above; details: reference: wild type

fold change (HSP90β (nanoKAZ-HSP90β)): 10
fold change (CDC37 (CDC37-nanoKAZ)): 17
Substance: DYRK1A (from UniProt Q13627) K188R kinase-dead (no autophosphorylation)

fold change (CDC37 (CDC37-nanoKAZ); sites Y111): 1.4
Substance: DYRK1A (from UniProt Q13627) Y111F

fold change (CDC37 (CDC37-nanoKAZ); sites Y159): 8.4
Substance: DYRK1A (from UniProt Q13627) Y159F

More lines, now with the values behind:

Substance: DYRK1A (from UniProt Q13627) Y145F/Y147F
fold change (CDC37 (CDC37-nanoKAZ); sites Y145,Y147): 2.4

Substance: DYRK1A (from UniProt Q13627) Y319F/Y321F
fold change (HSP90β (nanoKAZ-HSP90β); sites Y319,Y321): 3.8
fold change (CDC37 (CDC37-nanoKAZ); sites Y319,Y321): 8
